Read-outs that look alike come from different tables or passages of the source. Values belong to the binder of their own block, whether it stands above or below them.
Columns and labels:
[1] = target: T1, human IL-6 (human, UniProt P05231 30-212); assay: cell-based or functional assay
[2] = target: T1, human IL-6; assay: SPR (SensiQ Pioneer), mAb captured on protein G, IL-6 as analyte (3×FLAG-IL-6 or IL-6 CYT-213, 1-100 nM), 25 C, 1:1 model
Method: Equilibrium constants for rabbit human chimeric mAbs were determined by binding the mAb to the protein G coated chip followed by binding of each analyte (IL-6 or IL-23) to its respective mAb. In order to minimize mass transfer effects, the surface densities of the mAbs for each analyte were adjusted so that as analyte binding approached saturation its corresponding RU fell between 200 and 300. […] For each binding and dissociation cycle the chip surface was regenerated with 15 uL of 20 mM NaOH (5671-02, Mallinckrodt Baker, Philliphsburg, N.J.). The assay temperature was maintained at 25° C. with an analyte flow rate of 50 μL/min and included a 2 minute association phase and 10-30 minute dissociation phase. The on/off rates (kₐ/kd) and dissociation constants (KD) were determined using the format described above along with pseudo-first-order 1:1 interaction model software (Qdat, ICx Nomadics, Stillwater, Okla.).

[3] = target: T2, 3×FLAG-IL-6 (human); assay: SPR, 3×FLAG-IL-6 captured by anti-FLAG M2 on protein G, scFv as analyte (1-100 nM)
T2 construct: it may hold the pre-pro-trypsin leader
T2 sequence (chain, as listed by the source limits assumed): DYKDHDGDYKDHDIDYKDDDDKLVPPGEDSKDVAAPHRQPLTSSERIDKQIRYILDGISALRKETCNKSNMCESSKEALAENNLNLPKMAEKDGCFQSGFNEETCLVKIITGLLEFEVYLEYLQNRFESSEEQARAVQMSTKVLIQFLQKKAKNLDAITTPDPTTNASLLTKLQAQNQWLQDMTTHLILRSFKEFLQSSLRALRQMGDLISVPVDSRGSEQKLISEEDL
Method: Equilibrium constants for scFvs were determined as previously described; however, the protocol was modified so that an epitope tagged IL-6 was captured on the chip surface and the dissociation of anti-IL-6 scFvs from IL-6 was monitored. Briefly, anti-FLAG® M2 antibody (200472, Agilent Technologies, Santa Clara, Calif.) was bound to Protein G, and then 3×FLAG-IL-6 was captured by the anti-FLAG antibody. The anti-IL-6 scFvs were assayed over a range of concentrations between 1 and 100 nM.
Anti IL-6 scFvs, humanized using the one step method, retained IL-6 neutralization activity when expressed in mammalian cells, as shown for 13A8 (FIG. 11A and FIG. 11B), 28D2 and 9C8 v3-1 (FIG. 11C).

[4] = target: T1, human IL-6; assay: cell-based or functional assay; remark: listed apart in the source
[5] = target: T3, human dimeric IL-23 (eBiosciences 34-8239) (human, UniProt P29460 23-328; Q9NPF7 20-189); assay: cell-based or functional assay
T3 sequence (looked up) 1: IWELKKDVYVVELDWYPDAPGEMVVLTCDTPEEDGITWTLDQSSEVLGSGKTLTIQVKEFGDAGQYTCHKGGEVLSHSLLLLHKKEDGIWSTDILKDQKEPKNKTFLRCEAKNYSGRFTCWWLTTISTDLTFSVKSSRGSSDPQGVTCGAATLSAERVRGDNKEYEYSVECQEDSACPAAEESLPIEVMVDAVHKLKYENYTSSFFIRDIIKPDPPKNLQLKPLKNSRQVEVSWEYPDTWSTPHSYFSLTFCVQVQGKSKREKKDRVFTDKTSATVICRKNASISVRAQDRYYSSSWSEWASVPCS
T3 sequence (looked up) 2: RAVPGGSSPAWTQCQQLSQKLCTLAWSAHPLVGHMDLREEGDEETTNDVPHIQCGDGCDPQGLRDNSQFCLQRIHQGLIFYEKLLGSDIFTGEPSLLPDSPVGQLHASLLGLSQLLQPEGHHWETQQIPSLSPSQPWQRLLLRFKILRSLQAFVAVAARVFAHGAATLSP

[6] = target: T2, 3×FLAG-IL-6; assay: SPR, 3×FLAG-IL-6 captured by anti-FLAG M2 on protein G, scFv as analyte (1-100 nM); remark: listed apart in the source

B1: 9C8 chimeric mAb (antibody, V domains shown)
VH: QSVEESGGRLVTPGTPLTLTCTVSGIDLSSYDMSWVRQAPGKGLEWIGYIYTDSSTYYANWAKGRFTISKTSTTVDLKMTSLTTEDTATYFCAKGSTDYAFDTRLDLWGPGTLVTVS
VL: AYDMTQTPASVEVAMGGTVTIKCQASQSISNELSWYQQKPGQPPKLLIYRTSTLASGVSSRFKGSGSGTEYTLTISGVECADAATYYCQQGYNSNDVDNVFGGGTKVVVVR
notes: Rabbit/human chimeric IgG (human IgG1, kappa); HEK293; also called 9C8 clone
EC50, inhibition of IL-6 induced B9 cell proliferation [1]: 0.4 ng/mL
Kd [2]: 0.042 nM
koff [2]: 3.17e-05 s⁻¹
kon [2]: 765000 M⁻¹ s⁻¹

B3: 13A8n-PEG20-31A12c bispecific (bispecific antibody)
scFv 1: DIQLTQSPSFLSASVGDRVTITCQASQSISNELSWYQQKPGKAPKLLIYRASTLTSGVPSRFSGSGSGTEFTLTISSLQPEDFATYYCQQGYNSNDVDNVFGGGTKVEIKGGGGSGGGGSGGGGSGGGGSEVQLVESGGGLVQPGGSLRLSCTVSGIDLSSYDLSWVRQAPGKGLEWVGYIYTDSSTWYANWAKGRFTISRDNSKNTLYLQLNSLRAEDTAVYYCARGSTDYAFDTRLDLWGQGTLVTVSS
scFv 2: DIQLTQSPSFLSASVGDRVTITCQASEDIESYLAWYQQKPGKAPKLLIYSASTLTSGVPSRFSGSGSGTEFTLTISSLQPEDFATYYCLGADDTTTVFGGGTKVEIKGGGGSGGGGSGGGGSGGGGSEVQLVESGGGLVQPGGSLRLSCTASGFSLSSYWLTWVRQAPGKGLEWVGTIATSSTYYASWAKGRFTISRDNSKNTLYLQLNSLRAEDTAVYYCARGLTTDYDLDLWGQGTLVTVSS
modifications: C-terminal azidohomoalanine (Aha) joined through a linear 20 kDa PEG to the Aha of the other scFv; N-terminal azidohomoalanine (Aha) joined through a linear 20 kDa PEG to the Aha of the other scFv
EC50, neutralization of IL-6, first batch [4]: 1.67 ng/mL
EC50, neutralization of IL-6, second batch [4]: 1.69 ng/mL
EC50, neutralization of IL-23, first batch [5]: 4.96 ng/mL
EC50, neutralization of IL-23, second batch [5]: 3.25 ng/mL

B4: 13A8c-40KPEG-31A12c bispecific (bispecific antibody)
scFv 1: DIQLTQSPSFLSASVGDRVTITCQASQSISNELSWYQQKPGKAPKLLIYRASTLTSGVPSRFSGSGSGTEFTLTISSLQPEDFATYYCQQGYNSNDVDNVFGGGTKVEIKGGGGSGGGGSGGGGSGGGGSEVQLVESGGGLVQPGGSLRLSCTVSGIDLSSYDLSWVRQAPGKGLEWVGYIYTDSSTWYANWAKGRFTISRDNSKNTLYLQLNSLRAEDTAVYYCARGSTDYAFDTRLDLWGQGTLVTVSS
scFv 2: DIQLTQSPSFLSASVGDRVTITCQASEDIESYLAWYQQKPGKAPKLLIYSASTLTSGVPSRFSGSGSGTEFTLTISSLQPEDFATYYCLGADDTTTVFGGGTKVEIKGGGGSGGGGSGGGGSGGGGSEVQLVESGGGLVQPGGSLRLSCTASGFSLSSYWLTWVRQAPGKGLEWVGTIATSSTYYASWAKGRFTISRDNSKNTLYLQLNSLRAEDTAVYYCARGLTTDYDLDLWGQGTLVTVSS
modifications: C-terminal azidohomoalanine (Aha) joined through a linear 40 kDa PEG to the Aha of the other scFv
EC50, B9 cell line bioassay [4]: 0.138 ng/mL
EC50, mouse splenocyte assay [5]: 2.7 ng/mL

B9: 28D2 N-Aha (scFv)
scFv: MEDIQLTQSPSFLSASVGDRVTITCQASEDLFSSLAWYQQKPGKAPKLLIYSASTLASGVPSRFSGSGSGTDFTLTISSLQPEDFATYYCLGLYYYLTPDPIYGFGGGTKVEIKGGGGSGGGGSGGGGSGGGGSEVQLVESGGGLVQPGGSLRLSCTVSGLSLSKNAIAWVRQAPGKGLEWVGIIYAGGATTYASWAKGRFTISRDNSKNTLYLQLNSLRAEDTAVYYCAREYAGDSYYTGYTQLDLWGQGTLVTVSSGPPPPPHHHHHH
modifications: azidohomoalanine (Aha) in place of the single Met, at the N terminus
notes: also called E. coli 28D2 scFv with Aha at the N term
Kd [6]: 0.062 nM
koff [6]: 8.99e-05 s⁻¹
kon [6]: 1.46e+06 M⁻¹ s⁻¹

Further lines, results first:

EC50, inhibition of IL-6 induced B9 cell proliferation [1]: 0.319 ng/mL
Kd [3]: 0.089 nM
koff [3]: 4.03e-05 s⁻¹
kon [3]: 447000 M⁻¹ s⁻¹
B2: 9C8 humanized scFv (9C8 Hum scFv v3-1) (scFv)
scFv: DIQMTQSPSSVSASVGDRVTITCQASQSISNELSWYQQKPGKAPKLLIYRTSTLASGVPSRFSGSGSGTDFTLTISSLQPEDFATYYCQQGYNSNDVDNVFGGGTKVEIKGGGGSGGGGSGGGGSGGGGSEVQLVESGGGLVQPGGSLRLSCTVSGIDLSSYDMSWVRQAPGKGLEWVGYIYTDSSTYYANWAKGRFTISRDNSKNTLYLQMNSLRAEDTAVYYCARGSTDYAFDTRLDLWGQGTLVTVSSGPPPPPHHHHHH
notes: the sentence before it names 9C8 v3-1; purified by 6×His tag; also called 9C8 scFv v3-1; 9C8v3-1

EC50, B9 cell line bioassay [4]: 0.933 ng/mL
EC50, mouse splenocyte assay [5]: 5.66 ng/mL
B5: 13A8n-PEG-45G5c bispecific (bispecific antibody)
scFv 1: DIQLTQSPSFLSASVGDRVTITCQASQSISNELSWYQQKPGKAPKLLIYRASTLTSGVPSRFSGSGSGTEFTLTISSLQPEDFATYYCQQGYNSNDVDNVFGGGTKVEIKGGGGSGGGGSGGGGSGGGGSEVQLVESGGGLVQPGGSLRLSCTVSGIDLSSYDLSWVRQAPGKGLEWVGYIYTDSSTWYANWAKGRFTISRDNSKNTLYLQLNSLRAEDTAVYYCARGSTDYAFDTRLDLWGQGTLVTVSS
scFv 2: MADIQLTQSPSFLSASVGDRVTITCQSSQSIYNNNLLSWYQQKPGKAPKLLIYFASTLASGVPSRFSGSGSGTEFTLTISSLQPEDFATYYCLGGYDDDADTAFGGGTKVEIKGGGGSGGGGSGGGGSGGGGSEVQLVESGGGLVQPGGSLRLSCTVSGFSLSVYAINWVRQAPGKGLEWVGIINDVDDTAYSAWAKGRFTISRDNSKNTLYLQLNSLRAEDTAVYYCARGYLSYAYAGDAFDPWGQGTLVTVSSGM
modifications: C-terminal azidohomoalanine (Aha) joined through a 20 kDa PEG to the Aha of the other scFv; N-terminal azidohomoalanine (Aha) joined through a 20 kDa PEG to the Aha of the other scFv

EC50, B9 cell line bioassay [4]: 0.246 ng/mL
EC50, mouse splenocyte assay [5]: 0.234 ng/mL
B6: 13A8c-PEG-22H8c bispecific (bispecific antibody)
scFv 1: DIQLTQSPSFLSASVGDRVTITCQASQSISNELSWYQQKPGKAPKLLIYRASTLTSGVPSRFSGSGSGTEFTLTISSLQPEDFATYYCQQGYNSNDVDNVFGGGTKVEIKGGGGSGGGGSGGGGSGGGGSEVQLVESGGGLVQPGGSLRLSCTVSGIDLSSYDLSWVRQAPGKGLEWVGYIYTDSSTWYANWAKGRFTISRDNSKNTLYLQLNSLRAEDTAVYYCARGSTDYAFDTRLDLWGQGTLVTVSS
scFv 2: DIQLTQSPSFLSASVGDRVTITCQSSQTVYKNNLLSWYQQKPGKAPKLLIYLASTLASGVPSRFSGSGSGTEFTLTISSLQPEDFATYYCLGGYDDDADTAFGGGTKVEIKGGGGSGGGGSGGGGSGGGGSEVQLVESGGGLVQPGGSLRLSCTVSGFSLSTYTLNWVRQAPGKGLEWVGAISYDGGTAYANWAKGRFTISRDNSKNTLYLQLNSLRAEDTAVYYCARGFYVYAYIGDAFDPWGQGTLVTVSS
modifications: C-terminal azidohomoalanine (Aha) joined through a 20 kDa PEG to the Aha of the other scFv

EC50: concentration necessary to inhibit bioactivity of 50 pg/ml of IL-6 [5]: 0.767 ng/mL
B7: 14B5 chimeric mAb (antibody, V domains shown)
VH: QSVEESGGRLVTPGTPLTLTCAVSGFSLSDYTMIWVRQAPGEGLEWIGIISSSGNTYYATWVKGRFTISKTSTTVDLKMISPTTEDTATYFCARGSGAYISDYFNVWGPGTLVTVSS
VL: FELTQTPSSVEAAVEGTVTIKCQASQSIDSWLSWYQQKPGQPPKLLIYAASKLATGVPSRFSGSGSGTQFTLTIGDLECADAATYYCQSYYDVNAGYGFGGGTEVVVVR

EC50, inhibition of IL-6 induced B9 cell proliferation [4]: 0.51 ng/mL
B8: 8C8 rabbit scFv (scFv, V domains shown)
VH: QSVEESGGRLVAPGGSLTLTCKASGFSLSSSGVSWVRQAPGKGLEWIGYVSIADTISYANWAKGRFTISKTSSTTVDLEMTSLTTEDTATYFCVRGFITYSGVLWGPGTLVTVSS
VL: QVLTQTPASVSAAVGGTVTISCQSSQNVYSNAFLSWYQQKPGQPPKLLIYKASKLASGVPSRFSGSGSGTQFTLTISGVQCDDAATYYCAGEYEGGIGTFGGGTEVVVVR

Kd [6]: 0.053 nM
koff [6]: 6.88e-05 s⁻¹
kon [6]: 1.3e+06 M⁻¹ s⁻¹
B10: 28D2-L Aha (scFv)
scFv: MADIQLTQSPSFLSASVGDRVTITCQASEDLFSSLAWYQQKPGKAPKLLIYSASTLASGVPSRFSGSGSGTDFTLTISSLQPEDFATYYCLGLYYYLTPDPIYGFGGGTKVEIKGGGGSGMGGSGGGGSGGGGSEVQLVESGGGLVQPGGSLRLSCTVSGLSLSKNAIAWVRQAPGKGLEWVGIIYAGGATTYASWAKGRFTISRDNSKNTLYLQLNSLRAEDTAVYYCAREYAGDSYYTGYTQLDLWGQGTLVTVSSGPPPPPHHHHHH
modifications: azidohomoalanine (Aha) in place of a single Met in the Gly/Ser linker between VL and VH
notes: also called E. coli 28D2 scFv with Aha in the Gly/Ser linker

EC50, inhibition of IL-6 induced B9 cell proliferation [1]: 0.065 ng/mL
B11: 28D2 chimeric mAb (antibody, V domains shown)
VH: QSLGESGGRLVTPGTPLTLTCTVSGLSLSKNAIAWVRQAPGKGLEWIGIIYAGGATTYASWAKGRFTISKSSTTVDLKITSPTTVDTATYFCAREYAGDSYYTGYTQLDLWGPGTLVTVSS
VL: ALVMTQTPASVSAAVGGTVTINCQASEDLFSSLAWFQQKPGQPPKLLIYSASTLASGVPSRFSGSGSGTEFTLTISDLECADAATYYCLGLYYYLTPDPIYGFGGGTKVVVV
